B1: TPR 5TU (parent)
chain: GGAUCUUCUCGAUCUAACAAAAAAGACAAAUCUGCCACAAAGCUUGAGAGCAUCUUCGGAUGCAGAGGCGGCAGCCUUCGGUGGCGCGAUAGCGCCAACGUUCUCAACUAUGACACGCAAAACGCGUGCUCCGUUGAAUGGAGUUUAUCAUG

This sample holds only a part of the variants without activity. Bounds are passed on as bounds.

The variants in the series derive from B1. Put plainly: polymerase ribozyme fitness, log enrichment relative to wild type (log ratio); higher = more active; in vitro selection for triplet polymerase activity. In a few lines:
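In triplicate, a single round of in vitro selection was run on each mutant library, PCR-built and transcribed, covering one subunit of a heterodimeric triplet polymerase ribozyme. Frozen incubation at −7 °C followed annealing with a biotinylated primer, partner subunit and triplets, and extended constructs were then gel-excised, streptavidin-captured and taken through RT-PCR. Fitness is the logarithm of genotype enrichment over wild-type enrichment, from inverse-variance-weighted replicate averages of Illumina-sequenced inputs and outputs. […] only genotypes with ≥10 input reads and ≥1 read per output were kept.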
Regarding C5A A16U G59U, the “polymerase ribozyme fitness (log ratio)” value is -1.5. For U4G C57A A73G C87U, the “polymerase ribozyme fitness (log ratio)” value was -0.214. Turning to U4A C76G A91U A115U, the “polymerase ribozyme fitness (log ratio)” value is not above -4.2.

U4G C35A C79A G94A U148G: the “polymerase ribozyme fitness (log ratio)” value is not above -4.2.

As to U4C A20U A29U G46C C54U C85U C116U, the “polymerase ribozyme fitness (log ratio)” value is not above -4.2.

On to A3C U6G G25U G83A, for which the “polymerase ribozyme fitness (log ratio)” value was -3.47. As for C5G A41C G46C C57G A60U G68C U135A G141A, the “polymerase ribozyme fitness (log ratio)” value is not above -4.2. As to C5A A24C G48U G65C C87U C99U A121G, the “polymerase ribozyme fitness (log ratio)” value is not above -4.2. With C5A G92C, the “polymerase ribozyme fitness (log ratio)” value was -1.76.

A3U C38U C96U G126U G143A: the “polymerase ribozyme fitness (log ratio)” value was not above -4.2. In the case of U4A A20C A28C A29G C87A G141U, the “polymerase ribozyme fitness (log ratio)” value was -4.08. Then U4G C27G A40U C116G A137C, with not above -4.2; and U4G C85U, with -0.873; and A3G U53C A60C G62C A91G U104C C118A A120U U134G, with not above -4.2. For the variant C5A C99U, the “polymerase ribozyme fitness (log ratio)” value was -0.267. Then U4G A24C G84U G86U C108U A122G U151C, with not above -4.2; and C5G A16G A19G A24U A37G G50C G84U A120C G133U, with not above -4.2. For A3U A40G C54U C95A C149G, the “polymerase ribozyme fitness (log ratio)” value was not above -4.2. Turning to A3G A47G U61A G94U C99A C108U U135G, the “polymerase ribozyme fitness (log ratio)” value is not above -4.2. Regarding A3G C5U C35U C85U A106G, the “polymerase ribozyme fitness (log ratio)” value turned out to be 0.235. Regarding U4A A19C, the “polymerase ribozyme fitness (log ratio)” value was 0.332.

Take A3G A20C G65C G68C A98G C149U G152U: the “polymerase ribozyme fitness (log ratio)” value was not above -4.2.

With U4C C85A, the “polymerase ribozyme fitness (log ratio)” value is -1.34. For A3U G58C G59C C96U C131A, the “polymerase ribozyme fitness (log ratio)” value is -3.63.

For U4A A19C A89U C96U A138G U146G, the “polymerase ribozyme fitness (log ratio)” value is not above -4.2. On to U4C C38G G59A U61A U148C, for which the “polymerase ribozyme fitness (log ratio)” value was not above -4.2.

Take A3G C18U G50C C87G A97G C99U U146G: the “polymerase ribozyme fitness (log ratio)” value is not above -4.2. In the case of A3C U9A G11A C35G C75A G117A U145C, the “polymerase ribozyme fitness (log ratio)” value was not above -4.2. As for U4C G58A G83A C85U, the “polymerase ribozyme fitness (log ratio)” value was -1.97. With U4C U7G C87A G100A U101A, the “polymerase ribozyme fitness (log ratio)” value is not above -4.2. As to A3U G58A C96G, the “polymerase ribozyme fitness (log ratio)” value was -1.09. The same measure for A3G U4A A17C A52G G94C U102C C131U: -1.71; for C5G C35U G59C C87U G100U C125G G133A U145C: not above -4.2; for U4G A39G A142G: -3.9. As to C5G A24U G81C, the “polymerase ribozyme fitness (log ratio)” value is -0.313. As for C5G A23C A66G C69U A91G C105G A120U, the “polymerase ribozyme fitness (log ratio)” value was not above -4.2. In the case of U4A U6A A17U A30U C105U U134G, the “polymerase ribozyme fitness (log ratio)” value is not above -4.2. Consider C5G A23C G68C G81C G83C U101G C118U G141U, for which the “polymerase ribozyme fitness (log ratio)” value is not above -4.2.

In the case of A3U G11C U44A G58C G62A G68A G94C, the “polymerase ribozyme fitness (log ratio)” value was not above -4.2.

C5A A113U: the “polymerase ribozyme fitness (log ratio)” value is -2.74. Consider U4A A24U U31G C54U G84A, for which the “polymerase ribozyme fitness (log ratio)” value is -1.15. With U4A C36A A52C A73G C95U, the “polymerase ribozyme fitness (log ratio)” value was not above -4.2. With C5G C8U A12U C27G G59C A66G U78C U101A C125G C131A U139C, the “polymerase ribozyme fitness (log ratio)” value was -3.97. For the variant C5G A12G G83A G94A G141C, the “polymerase ribozyme fitness (log ratio)” value is -4.19. Then C5G G136A, with 0.0107; and C5A C14G A22G A49C G50U G58C, with -4.18. As to C5A U9C C85A, the “polymerase ribozyme fitness (log ratio)” value is -2.68.

U4G U31A C54U G86C G92U U148G: the “polymerase ribozyme fitness (log ratio)” value is not above -4.2. As to U4C C5G U55A C75A G88C G133U, the “polymerase ribozyme fitness (log ratio)” value is -4.17. C5A A17U U56A U127A: the “polymerase ribozyme fitness (log ratio)” value was -4.16.

In the case of U4C G25U C79A C93G U111C, the “polymerase ribozyme fitness (log ratio)” value is not above -4.2. In the case of C5A U44C C76A G84A C131U A150U, the “polymerase ribozyme fitness (log ratio)” value was not above -4.2. Regarding U4C A19U G50C C76U U144G, the “polymerase ribozyme fitness (log ratio)” value is not above -4.2. Then U4G U7C A16G C96G, with -2.73. For A3G A30C C51U U55G U61A G68U G83C A142G, the “polymerase ribozyme fitness (log ratio)” value is not above -4.2. For the variant U4C A52U U82G C96A, the “polymerase ribozyme fitness (log ratio)” value is -3.56.

On to A3U C54A, for which the “polymerase ribozyme fitness (log ratio)” value was -2.21. Turning to C5A G11C C32G G92U C99A C125G G136U G141U, the “polymerase ribozyme fitness (log ratio)” value is not above -4.2. For A3U U45A C96A, the “polymerase ribozyme fitness (log ratio)” value is -3.51. The same measure for A3U U15G A19C A39C U44G U55A C57U A60G C63A G84A A110U A120C: not above -4.2; for C5G G84U: -2.38; for A3U C99U: -0.307.

Turning to A3U A24U A66U C93G A107C, the “polymerase ribozyme fitness (log ratio)” value is not above -4.2.

Regarding A3U G58A C87G U101C A113U C131G, the “polymerase ribozyme fitness (log ratio)” value is not above -4.2. Then C5A A26U C35G A39U C76U C85U C118U A119C, with -4.09; and U4G U56G U144A, with -1.19. Then C5G C10A G11A A30U A49C C93U G136A, with not above -4.2.

Consider A3U C10U C54A U55A, for which the “polymerase ribozyme fitness (log ratio)” value is -1.97. Consider U4G A52C G83A, for which the “polymerase ribozyme fitness (log ratio)” value was -2.69. Take C5A G25C A41C C85U A89C A115G C132G U146C U148G: the “polymerase ribozyme fitness (log ratio)” value was not above -4.2. Consider C5G A52C G58A C93A C118U, for which the “polymerase ribozyme fitness (log ratio)” value was -3.09. The same measure for C5A A26G C36A C96A: not above -4.2.

As for C5G A20G C75U C87U A119G A142G, the “polymerase ribozyme fitness (log ratio)” value was -3.16. For C5G A23G A49U U77G G86A A137G, the “polymerase ribozyme fitness (log ratio)” value was not above -4.2. With A3G G94A, the “polymerase ribozyme fitness (log ratio)” value was -1.67. C5G A52G G80A: the “polymerase ribozyme fitness (log ratio)” value was -1.81. C5A A20U C35U A91C U101A C105G U145G: the “polymerase ribozyme fitness (log ratio)” value is not above -4.2.

With C5G A16U C43G C93G A106U A107U, the “polymerase ribozyme fitness (log ratio)” value is not above -4.2. On to C5A A16C A19U U61A, for which the “polymerase ribozyme fitness (log ratio)” value was -2.61. Then A3U A17C A47U C93U U104A, with -1.38; and U4A G94A, with -0.663. The same measure for U4A A16G A37U A91G G124U: not above -4.2; for U4G G42C C76G U90C C93G A113C: not above -4.2.

Source of the values: the RNAGym collection of RNA variant scans (doi:10.1073/pnas.2313332121).
